We go through one molecule from patent US20250154215A1, “PHARMACEUTICAL COMPOSITION FOR TREATING COLITIS OR COLORECTAL CANCER COMPRISING COLON-TARGETED S100A8/A9-DERIVED SPECIFIC PEPTIDE” (Industry-University Cooperation Foundation Hanyang …, priority 2023, published 2025).

On the set-up of data set [1]: species or system BALB/c mice. As to conditions: mouse, in vivo. How it is done:
FIGS. 12A-12E show biological effects of rCT-S100A8/9 in tumor-bearing mice. […] Each vertical bar represents the mean±SD of cell viability at each dose. Data is shown as the mean±SD of six experiments. […] HCT116 cells were injected subcutaneously into the flanks of BALB/c mice as described in the Methods section. Mice were administered one or two intraperitoneal doses and sacrificed on day 5. Their expression was assessed by IB in various organs of mice. WCLs were used for IB including αActin. Data is representative of four independent experiments with similar results. […] E-cadherin, N-cadherin, and β-catenin staining of the tumors. […] IgG levels specific for rCT-S100A8/9 or ovalbumin (OVA) were measured using ELISA. […] Serum cytokine levels were measured 30 days after administration. […]
Cytokine content was analyzed in cell culture supernatants and mouse sera using the BD OptEIA ELISA set (BD Pharmingen) to detect TNF-α, IL-6, IL-1β, and IL-18. […]
(§1) A major concern with protein therapeutics derived from endogenous human proteins is that they may induce strong anti-therapeutic antibody responses and stimulate undesirable immune responses. […] Therefore, the immunogenicity of rCT-S100A8/A9 was assessed by measuring the production of anti-rCT-S100A8/A9 antibodies in mice immunized with the peptide according to the present invention. […]

The format of data set [2] is in vitro ADME. As to conditions: human, microsomes, 0.5 h. How it is done: 0.1 M phosphate buffer (pH 7.4) and S100A8/A9 peptide ([…]) or rCT-S100A8/A9 protein (10 μg/mL) were added to human liver microsomes (0.5 mg/mL). After incubation at 37° C. for five minutes, the NADPH-generating system solution was also added and incubated again at 37° C. for 30 minutes. To terminate the reaction, acetonitrile containing an internal standard (clopramide) was added, and the resulting mixture was centrifuged for five minutes (14,000 rpm, 4° C.). The supernatant was then injected into an LC-MS/MS system to analyze the microsomal stability of the tested substances.

Details of data set [3]: species or system BALB/c mice. The conditions noted are these: mouse, in vivo. How it is done: FIGS. 12A-12E show biological effects of rCT-S100A8/9 in tumor-bearing mice. […] Each vertical bar represents the mean±SD of cell viability at each dose. Data is shown as the mean±SD of six experiments. […] HCT116 cells were injected subcutaneously into the flanks of BALB/c mice as described in the Methods section. Mice were administered one or two intraperitoneal doses and sacrificed on day 5. Their expression was assessed by IB in various organs of mice. WCLs were used for IB including αActin. Data is representative of four independent experiments with similar results. […] E-cadherin, N-cadherin, and β-catenin staining of the tumors. […] Mice were immunized by each route (i.v. or i.p.) every 3 days, and blood was collected on day 40. IgG levels specific for rCT-S100A8/9 or ovalbumin (OVA) were measured using ELISA. Values represent the mean optical density (OD) and standard deviation at 450 nm. Each group included five mice. […] Serum cytokine levels were measured 30 days after administration. […]
as §1
The source holds these as a separate data set.

Data set [4] deals with OxaR-HCT116. Briefly: Co-IP and Western blot in parental and OxaR-HCT116 cells stimulated with rS100A8/9. The data set is classed as cell-based. The protocol: FIGS. 11A-11F show rCT-S100A8/A9 ameliorated oxaliplatin-resistant HCT116 xenograft tumor growth. […] Each vertical bar represents the mean±SD of cell viability at each dose. Data is shown as the mean±SD of six experiments. […] WCLs were used for IB including αTLR4, αRAGE, αS100A8, αS100A9, or αActin. […] HCT116 cells were injected subcutaneously into the flanks of nude mice. Tumor length and width were measured using calipers, and tumor volume was calculated every 3 days for 30 days. Representative images of tumors from mice treated with rCT-S100A8/9 on day 15 (middle). Statistical significance was determined by two-way analysis of variance (ANOVA) with Tukey's post hoc test. *P<0.05, ***P<0.001 compared to rVehicle. […] WCLs were used for IB including αTLR4, αRAGE, αS100A8, αS100A9, or αActin. […] Tumors were stained with H&E. Data is representative of seven independent experiments with similar results (FIGS. 11B, 11C, and 11E);
293T, BMDMs, and THP-1 cells were treated as indicated and processed for analysis by GST pulldown, Western blotting, and co-IP analysis. For GST pulldown, 293T cells were harvested and lysed in an NP-40 buffer including a complete protease inhibitor cocktail (Roche, Basel, Switzerland). After centrifugation, the supernatant was pre-cleared using protein A/G beads for two hours at 4° C. The pre-cleared lysates were mixed with a 50% slurry of glutathione-conjugated Sepharose beads (Amersham Biosciences, Amersham, UK), and binding reactions were performed for four hours at 4° C. by incubating the lysates at 4° C. The precipitate was extensively washed with a lysis buffer. Proteins bound to the glutathione beads were eluted by boiling for five minutes in a sodium dodecyl sulfate (SDS) loading buffer. For IP, cells were harvested and lysed in an NP-40 buffer supplemented with a complete protease inhibitor cocktail (Roche, Switzerland). After pre-clearing with protein A/G agarose beads for one hour at 4° C., whole cell lysates were used for IP using the indicated antibodies. Typically, 1 to […] of a commercial antibody was added to 1 ml of the cell lysate, and the resulting mixture was incubated for 8 to 12 hours at 4° C. After adding protein A/G agarose beads for six hours, immunoprecipitates were extensively washed with a lysis buffer and eluted with an SDS loading buffer by boiling for five minutes. For immunoblotting (IB), polypeptides were analyzed by SDS-polyacrylamide gel electrophoresis and transferred to polyvinylidene difluoride (PVDF) membranes (Bio-Rad, Hercules, CA, USA). Immunodetection was performed using specific antibodies. Antibody binding was visualized by chemiluminescence (ECL; Millipore, Burlington, MA, USA) and detected using a Vilber chemiluminescence analyzer (Fusion SL 3; Vilber Lourmat). […]
In general terms: Immunoblotting shows a protein as a band on a membrane.

Setting [5] is: parental and OxaR-HCT116 cells, Western blot.

B1: TWYKIAFQRNRKTWYKIAFQRNRKTWYKIAFQRNRKTWYKIAFQRNRKTWYKIAFQRNRKGGFLVIKGGAHKSHKGGITIITFGGGHHGGFLVIKGGAHKSHKGGITIITFGGGHHGGFLVIKGGAHKSHKGGITIITFGGGHHGG (protein)
chain: TWYKIAFQRNRKTWYKIAFQRNRKTWYKIAFQRNRKTWYKIAFQRNRKTWYKIAFQRNRKGGFLVIKGGAHKSHKGGITIITFGGGHHGGFLVIKGGAHKSHKGGITIITFGGGHHGGFLVIKGGAHKSHKGGITIITFGGGHHGG
modifications: N-terminal 6xHis tag
On to B1, for which the “production of pro-inflammatory cytokines” value in data set [1] is recorded as “negligible”. Further, the “microsomal stability, remaining” value in data set [2] is on record as 92%. The “production of specific anti-rCT-S100A8/A9 antibodies” value in data set [3] is given as “negligible compared to that induced by ovalbumin”. In addition, the S100-PRR interactions entry in data set [4] (OxaR-HCT116, recombinant S100A8/A9 stimulated, 10, 20, 50 μg/ml) was “inhibited by increasing the concentration of rCT-S100A8/A9”. Moreover, the “phosphorylation of EGFR, AKT, and NF-κB” value in data set [4] (parental and OxaR CRC cells) is given as “decreased”. Besides, in data set [4] (setting [5]), the “expression of epithelial marker (E-cadherin)” value was “increase”; the “expression of mesenchymal markers (N-cadherin and vimentin)” value is listed as “significant decrease”.
